Results published in the supplement of paper PMC11246515.
± gives the standard deviation of the averaged measurements.

Assay: total protein half-life in vivo (active degradation + dilution); higher = more stable protein
[1] = E. coli NCM3722 delta-clpP delta-lon delta-hslV, growth: N-lim chemostat, doubling time 6 h
[2] = E. coli NCM3722 delta-clpP, growth: N-lim chemostat, doubling time 6 h
[3] = E. coli NCM3722 delta-hslV, growth: N-lim chemostat, doubling time 6 h
[4] = E. coli NCM3722 delta-lon, growth: N-lim chemostat, doubling time 6 h
[5] = E. coli NCM3722 delta-smpB, growth: N-lim chemostat, doubling time 6 h
[6] = wild type E. coli NCM3722, growth: C-lim chemostat, doubling time 3 h
[7] = wild type E. coli NCM3722, growth: C-lim chemostat, doubling time 6 h
[8] = wild type E. coli NCM3722, growth: C-lim chemostat, doubling time 12 h
[9] = wild type E. coli NCM3722, growth: N-lim chemostat, doubling time 6 h
[10] = wild type E. coli NCM3722, growth: N-lim chemostat, doubling time 12 h
[11] = wild type E. coli NCM3722, growth: P-lim chemostat, doubling time 6 h
[12] = wild type E. coli NCM3722, growth: P-lim chemostat, doubling time 12 h

| Sequence | total protein half-life in vivo [1] [h] | total protein half-life in vivo [2] [h] | total protein half-life in vivo [3] [h] | total protein half-life in vivo [4] [h] | total protein half-life in vivo [5] [h] | total protein half-life in vivo [6] [h] | total protein half-life in vivo [7] [h] | total protein half-life in vivo [8] [h] | total protein half-life in vivo [9] [h] | total protein half-life in vivo [10] [h] | total protein half-life in vivo [11] [h] | total protein half-life in vivo [12] [h] |
| --- | --- | --- | --- | --- | --- | --- | --- | --- | --- | --- | --- | --- |
| MSDQFDAKAFLKTVTSQPGVYRMYDAGGTVIYVGKAKDLKKRLSSYFRSNLASRKTEALVAQIQQIDVTVTHTETEALLLEHNYIKLYQPRYNVLLRDDKSYPFIFLSGDTHPRLAMHRGAKHAKGEYFGPFPNGYAVRETLALLQKIFPIRQCENSVYRNRSRPCLQYQIGRCLGPCVEGLVSEEEYAQQVEYVRLFLSGKDDQVLTQLISRMETASQNLEFEEAARIRDQIQAVRRVTEKQFVSNTGDDLDVIGVAFDAGMACVHVLFIRQGKVLGSRSYFPKVPGGTELSEVVETFVGQFYLQGSQMRTLPGEILLDFNLSDKTLLADSLSELAGRKINVQTKPRGDRARYLKLARTNAATALTSKLSQQSTVHQRLTALASVLKLPEVKRMECFDISHTMGEQTVASCVVFDANGPLRAEYRRYNITGITPGDDYAAMNQVLRRRYGKAIDDSKIPDVILIDGGKGQLAQAKNVFAELDVSWDKNHPLLLGVAKGADRKAGLETLFFEPEGEGFSLPPDSPALHVIQHIRDESHDHAIGGHRKKRAKVKNTSSLETIEGVGPKRRQMLLKYMGGLQGLRNASVEEIAKVPGISQGLAEKIFWSLKH [P0A8G0] | 6.54 ± 0.81 | 5.14 ± 0.15 | 4.77 ± 0.12 | 6.421 ± 0.061 | 4.75 ± 0.15 | 2.84 ± 0.067 | 5.1 ± 0.39 | 7.83 ± 0.25 | 4.84 ± 0.28 | 8.62 ± 0.12 | 4.61 ± 0.15 | 8.48 ± 0.19 |
| MSDSNSRLVYSTETGRIDEPKAAPVRPKGDGVVRIQRQTSGRKGKGVCLITGVDLDDAELTKLAAELKKKCGCGGAVKDGVIEIQGDKRDLLKSLLEAKGMKVKLAGG | 5.12 ± 0.14 | 4.16 | 3.29 ± 0.22 | 4.11 ± 0.81 | 3.04 ± 0.3 | 2.76 ± 0.65 | 4.11 ± 0.38 | 5.29 ± 0.51 | 3.15 | 5.059 ± 0.042 | 3.05 | 5.7 ± 0.6 |
| MSDSQTLVVKLGTSVLTGGSRRLNRAHIVELVRQCAQLHAAGHRIVIVTSGAIAAGREHLGYPELPATIASKQLLAAVGQSRLIQLWEQLFSIYGIHVGQMLLTRADMEDRERFLNARDTLRALLDNNIVPVINENDAVATAEIKVGDNDNLSALAAILAGADKLLLLTDQKGLYTADPRSNPQAELIKDVYGIDDALRAIAGDSVSGLGTGGMSTKLQAADVACRAGIDTIIAAGSKPGVIGDVMEGISVGTLFHAQATPLENRKRWIFGAPPAGEITVDEGATAAILERGSSLLPKGIKSVTGNFSRGEVIRICNLEGRDIAHGVSRYNSDALRRIAGHHSQEIDAILGYEYGPVAVHRDDMITR [P0A7B5] | 3.94 ± 0.49 | 3.94 ± 0.43 | 4.25 ± 0.076 | 5.654 ± 0.012 | 3.57 ± 0.05 | 2.98 ± 0.13 | 5.35 ± 0.17 | 9.09 ± 0.098 | 4.4 ± 0.31 | 9.48 ± 1.3 | 5.69 ± 0.71 | 11.7 ± 0.25 |
| MSDTLLTLRDVHINFPARKNWLGKTTEHVHAINGIDLQIRRGETLGIVGESGCGKSTLAQLLMGMLQPSHGQYIRSGSQRIMQMVFQDPLSSLNPRLPVWRIITEPLWIAKRSSEQQRRALAEELAVQVGIRPEYLDRLPHAFSGGQRQRIAIARALSSQPDVIVLDEPTSALDISVQAQILNLLVTLQENHGLTYVLISHNVSVIRHMSDRVAVMYLGQIVELGDAQQVLTAPAHPYTRLLLDSLPAIDKPLEEEWALRKTDLPGNRTLPQGCFFYERCPLATHGCEVRQSLAIREDGRELRCWRAL | – | 3.45 | – | – | 4.17 ± 0.074 | 1.74 | 4.55 | – | 4.44 | 6.31 ± 0.42 | – | – |
| MSDWNPSLYLHFSAERSRPAVELLARVPLENVEYVADLGCGPGNSTALLQQRWPAARITGIDSSPAMIAEARSALPDCQFVEADIRNWQPVQALDLIFANASLQWLPDHYELFPHLVSLLNPQGVLAVQMPDNWLEPTHVLMREVAWEQNYPDRGREPLAGVHAYYDILSEAGCEVDIWRTTYYHQMPSHQAIIDWVTATGLRPWLQDLTESEQQLFLKRYHQMLEEQYPLQENGQILLAFPRLFIVARRME | 3.89 ± 0.51 | 5.9 ± 1.7 | 4.82 ± 0.7 | 6.54 ± 1.9 | 3.62 ± 0.042 | 3.29 ± 0.6 | – | 9.97 ± 1.8 | 4.14 ± 0.17 | 4.96 | 5.89 ± 0.061 | 11 ± 0.27 |
| MSDYQMFEVQVSQVEPLTEQVKRFTLVATDGKPLPAFTGGSHVIVQMSDGDNQYSNAYSLLSSPHDTSCYQIAVRLEENSRGGSRFLHQQVKVGDRLTISTPNNLFALIPSARKHLFIAGGIGITPFLSHMAELQHSDVDWQLHYCSRNPESCAFRDELVQHPQAEKVHLHHSSTGTRLELARLLADIEPGTHVYTCGPEALIEAVRSEAARLDIAADTLHFEQFAIEDKTGDAFTLVLARSGKEFVVPEEMTILQVIENNKAAKVECLCREGVCGTCETAILEGEADHRDQYFSDEERASQQSMLICCSRAKGKRLVLDL | – | – | – | – | – | 3.41 | – | – | – | – | – | – |
| MSEALKILNNIRTLRAQARECTLETLEEMLEKLEVVVNERREEESAAAAEVEERTRKLQQYREMLIADGIDPNELLNSLAAVKSGTKAKRAQRPAKYSYVDENGETKTWTGQGRTPAVIKKAMDEQGKSLDDFLIKQ [P0ACF8] | – | – | 6.19 ± 0.062 | 7.64 ± 0.48 | 5.87 ± 1.2 | 2.9 ± 0.29 | 6.22 ± 0.29 | 9.37 ± 0.21 | 5.27 ± 0.45 | 11.6 ± 2.7 | 5.16 ± 0.77 | 11.7 ± 0.41 |
| MSEDIFDAIIVGAGLAGSVAALVLAREGAQVLVIERGNSAGAKNVTGGRLYAHSLEHIIPGFADSAPVERLITHEKLAFMTEKSAMTMDYCNGDETSPSQRSYSVLRSKFDAWLMEQAEEAGAQLITGIRVDNLVQRDGKVVGVEADGDVIEAKTVILADGVNSILAEKLGMAKRVKPTDVAVGVKELIELPKSVIEDRFQLQGNQGAACLFAGSPTDGLMGGGFLYTNENTLSLGLVCGLHHLHDAKKSVPQMLEDFKQHPAVAPLIAGGKLVEYSAHVVPEAGINMLPELVGDGVLIAGDAAGMCMNLGFTIRGMDLAIAAGEAAAKTVLSAMKSDDFSKQKLAEYRQHLESGPLRDMRMYQKLPAFLDNPRMFSGYPELAVGVARDLFTIDGSAPELMRKKILRHGKKVGFINLIKDGMKGVTVL | – | – | – | – | – | – | – | 9.28 | – | – | – | – |
